{"source": "patent US20190353654A1", "key": {"[1]": {"target": "CXCL12 24-88 (UniProt P48061)", "sequence (P48061 24-88 limits assumed, form in doubt)": "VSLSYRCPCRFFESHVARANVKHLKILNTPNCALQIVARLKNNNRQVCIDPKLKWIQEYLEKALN", "assay": "MicroScale Thermophoresis, earlier independent purification and refolding from E. coli inclusion bodies"}, "[2]": {"target": "CXCL12 24-88 (UniProt P48061)", "assay": "MicroScale Thermophoresis, labeled receptor, ligand titrated, in buffer (1x PBS, 5 mM DTT)"}, "[3]": {"target": "CXCL12 24-88 (UniProt P48061)", "assay": "MicroScale Thermophoresis, labeled receptor, ligand titrated, in 50% human serum"}, "[4]": {"target": "CXCL12 24-88 (UniProt P48061)", "assay": "MicroScale Thermophoresis, later independent purification and refolding from E. coli inclusion bodies"}, "[5]": {"target": "CCL5 26-91 (UniProt P13501)", "sequence (P13501 26-91 limits assumed, form in doubt)": "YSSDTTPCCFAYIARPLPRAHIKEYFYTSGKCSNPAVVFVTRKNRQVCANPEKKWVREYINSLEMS", "assay": "MicroScale Thermophoresis, labeled receptor, ligand titrated, in buffer (1x PBS, 5 mM DTT)"}, "[6]": {"target": "CCL5 26-91 (UniProt P13501)", "assay": "MicroScale Thermophoresis, earlier independent purification from SF9 cells"}, "[7]": {"target": "CCL5 26-91 (UniProt P13501)", "assay": "MicroScale Thermophoresis, labeled receptor, ligand titrated, in 50% human serum"}}}
{"binder": "CXCR4^QTY (receptor, not shown: small tags and cut ends, Receptor labelled with NT647 dye (RED-NHS, on amines) for MST; sites not specified) MEGISIYTSDNYTEEMGSGDYDSMKEPCFREENANFNKTYQPTTYSTTYQTGTTGQGQTTQTMGYQKKQRSMTDKYRQHQSTADQQYTTTQPYWATDATANWYFGNFQCKATHTTYTTQQYSSTQTQAYTSQDRYLAIVHATNSQRPRKQQAEKTTYTGTWTPAQQQTTPDYTYANVSEADDRYICDRFYPNDLWTTTYQYQHTMTGQTQPGTTTQSCYCTTTSKLSHSKGHQKRKALKTTTTQTQAYYACWQPYYTGTSTDSFILLEIIKQGCEFENTVHKWTSTTEAQAYYHCCQQPTQYAYQGAKYKTSAQHAQTSTSRGSSQKTQSKGKRGGHSSTSTESESSSFHSS", "values": [{"measurement": "Kd", "setting": "[1]", "result": 17, "unit": "nM"}, {"measurement": "Kd", "setting": "[2]", "result": 11.2, "unit": "nM"}, {"measurement": "Kd", "setting": "[3]", "result": 44.7, "unit": "nM"}, {"measurement": "Kd", "setting": "[4]", "result": 13, "unit": "nM"}]}
{"binder": "CXCR7^QTY (receptor, not shown: small tags and cut ends, The receptor was labelled with NT647 (RED-NHS dye on lysines, positions not defined) for MST. The letters do not carry this.) MDLHLFDYSEPGNFSDISWPCNSSDCIVVDTVMCPNMPNKSTQQYTQSYTYTYTYTTGMTANSVVVWVNIQAKTTGYDTHCYTQNQATADQWTTQTTPTWTTSLVQHNQWPMGELTCKTTHQTYSTNQYGSTYYQTCMSVDRYLSITYFTNTPSSRKKMVRRTTCTQTWQQAYCTSQPDTYYQKTVTSASNNETYCRSFYPEHSIKEWLIGMEQTSTTQGYATPYSTTATYYYQLARAISASSDQEKHSSRKTTYSYTTTYQTCWQPYHTATQLDIFSILHYIPFTCRLEHALFTAQHTTQCQSQTHCCTNPTQYSYTNRNYRYELMKAFIFKYSAKTGLTKLIDASRVSETEYSALEQSTK", "values": [{"measurement": "Kd", "setting": "[2]", "result": 2.2, "unit": "nM"}, {"measurement": "Kd", "setting": "[3]", "result": 6.6, "unit": "nM"}]}
{"binder": "CCR5^QTY (receptor, not shown: small tags and cut ends, Receptor labelled with NT647 dye (RED-NHS, on amines) for MST; sites not specified) MDYQVSSPIYDINYYTSEPCQKINVKQIAARQQPPQYSQTFTYGFTGNMQTTQTQINCKRLKSMTDIYLQNQAISDQYYQQTTPYWAHYAAAQWDFGNTMCQQQTGQYFTGYYSGTYYTTQQTTDRYLAVVHAVFALKARTTTYGTTTSTTTWTTATYASQPGTTYTRSQKEGLHYTCSSHFPYSQYQFWKNFQTLKITIQGQVQPQQTMVTCYSGTQKTLLRCRNEKKRHRAVRQTFTTMTTYYQYWAPYNTTQQLNTFQEFFGLNNCSSSNRLDQAMQVTETQGMTHCCTNPTIYAYVGEKFRNYLLVFFQKHIAKRFCKCCSIFQQEAPERASSVYTRSTGEQEISVGL", "values": [{"measurement": "Kd", "setting": "[5]", "result": 33.9, "unit": "nM"}, {"measurement": "Kd", "setting": "[6]", "result": 42, "unit": "nM"}, {"measurement": "Kd", "setting": "[7]", "result": 45.9, "unit": "nM"}]}
